The data set deals with T1, OsBIHD1 207-527 (HD domain) (Oryza sativa (rice; Pik-H4 NIL?), UniProt Q6QUW0 207-527).
T1 sequence: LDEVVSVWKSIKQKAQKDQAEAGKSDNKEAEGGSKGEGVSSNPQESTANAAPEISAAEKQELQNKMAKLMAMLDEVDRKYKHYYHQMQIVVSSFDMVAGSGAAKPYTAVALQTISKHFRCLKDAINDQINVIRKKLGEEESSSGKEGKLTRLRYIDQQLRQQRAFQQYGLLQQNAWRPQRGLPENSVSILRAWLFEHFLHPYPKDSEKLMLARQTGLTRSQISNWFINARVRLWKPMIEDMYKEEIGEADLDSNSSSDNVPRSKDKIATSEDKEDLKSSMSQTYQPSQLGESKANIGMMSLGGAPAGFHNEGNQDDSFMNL
The experiment in a line: EMSA; EMSA: 25 C, 30 min, binding buffer of Beyotime Chemiluminescent EMSA Kit GS009 (composition, salt and pH not stated); 10% polyacrylamide gel, 0.5x TBE. Conditions: protein: recombinant; tags: His (pET28a); label: biotin 3'. A general note: In EMSA bound probe runs differently from free probe, usually more slowly.

B1: CYP734A2 promoter TGTCA probe (dsDNA)
DNA 1: TGCATTGTCAGTTAC
DNA 2: GTAACTGACAATGCA
On to B1, for which the binding result is listed as “binds”.

B2: OsACO3 promoter TGTCA probe (dsDNA)
DNA 1: AAATTCTGTCATCATCA
DNA 2: TGATGATGACAGAATTT
Turning to B2, the binding result is on record as “binds”.

The values are drawn from PMC5292422, “NBS-LRR Protein Pik-H4 Interacts with OsBIHD1 to Balance Rice Blast Resistance and Growth by Coordinating Ethylene-Brassinosteroid Pathway”.
